This test addresses PelX^C232S (Pseudomonas protegens Pf-5). The test is described as follows: SEC. On the technique in general: Size exclusion chromatography separates by hydrodynamic size, large species first.

As usually defined, the stoichiometry N is the number of molecules, sites or subunits per partner or assembly.

In the case of PelX^C232S (enzyme), the stoichiometry N stood at 2.
